Where no end group is shown, it is not given here.
Assays:
HLA-DR molecules = assay type: binding, human
DRB1*1301 (DR13) = DRB1*1301 (DR13) (Homo sapiens, UniProt P01903+P01911, A100E/A169T/K41T/L162R/M171V/P40S/Q125H/Q178H/Q39Y/Q99D/R42S/S66N/T262R/W38E/Y61H); assay type: binding
DRB1*1101 (DR11) = DRB1*1101 (DR11) (Homo sapiens, UniProt P01903+P01911, A100R/A169T/A87E/I96F/K41T/L162R/M171V/P40S/Q125H/Q178H/Q39Y/Q99D/R42S/S66Y/T262R/V115G/W38E); assay type: binding
[1] = test system: CD4^+ T cells of HLA class II transgenic mice; assay type: cell-based
DRB1*0701 (DR7) = DRB1*0701 (DR7) (Homo sapiens, UniProt P01903+P01911, A100R/A102G/A103Q/D57E/D86V/E43K/F76Y/K127E/L162R/M171V/P40G/Q125H/Q99D/R33Q/R42Y/R54Q/S133A/S66F/T210M/V115G/Y107V/Y59L/Y89S); assay type: binding
DRB1*0401 (DR4) = DRB1*0401 (DR4) (Homo sapiens, UniProt P01903+P01911, A100K/A169T/F76Y/I96L/K127E/L162R/M171V/N62H/P40V/Q125Y/R42H/S133A/S149N/S66Y/V115G/V209L/W38E); assay type: binding
DRB1*1501 (DR15) = DRB1*1501 (DR15) (Homo sapiens, UniProt P01903+P01911); assay type: binding
DRB1*0301 (DR3) = DRB1*0301 (DR3) (Homo sapiens, UniProt P01903+P01911, A100K/A102G/A103R/A169T/F55Y/I96L/K41T/L162R/M171V/P40S/Q125H/Q178H/Q39Y/R42S/S66N/T106N/T262R/W38E/Y61H); assay type: binding
DRB1*0101 (DR1) = DRB1*0101 (DR1) (Homo sapiens, UniProt P01903+P01911, A100R/D57E/F55L/F60I/F76Y/I96L/L162R/M171V/P40L/Q125E/R42F/V115G/Y59C); assay type: binding

Row | Sequence | Binding across all HLA-DR alleles assayed (HLA-DR molecules) | Relative binding affinity of peptide to HLA-DR molecules, DR13 (DRB1*1301 (DR13)) | Relative binding affinity of peptide to HLA-DR molecules, DR11 (DRB1*1101 (DR11)) | HLA-restriction based on CD4 T cell response class II HLA transgenics after priming with LF [1] | Relative binding affinity of peptide to HLA-DR molecules, DR7 (DRB1*0701 (DR7)) | Relative binding affinity of peptide to HLA-DR molecules, DR4 (DRB1*0401 (DR4)) | Relative binding affinity of peptide to HLA-DR molecules, DR15 (DRB1*1501 (DR15)) | Relative binding affinity of peptide to HLA-DR molecules, DR3 (DRB1*0301 (DR3)) | Relative binding affinity of peptide to HLA-DR molecules, DR1 (DRB1*0101 (DR1)) | CD4 T cell response in LF immunized HLA transgenics [1] | IC50 (DRB1*1301 (DR13); read-out: IC50 of reference peptide)
1 | QHRDVLQLYAPEAFNYMDKF | strong to moderate binding across all seven HLA-DR alleles | 267 | 5 | DR1, DQ8 | 83 | 100 | 0.3 | 3 | 146 |  | 
2 | PKSKIDTKIQEAQLNINQEW [LF584-603] |  |  |  |  |  |  |  |  |  | did not induce any response in any of the HLA transgenics | 
3 | YYEIGKILSRDILSKINQPY |  | 5 | 0.4 | DQ8 | 4 | 19 | 43 | 3 | 69 |  | 
4 | NEQEINLSLEELKDQRMLSR [LF 281-300] |  |  |  |  |  |  |  |  |  | did not induce a response in any of the HLA transgenics | 
5 | TERVRLVTRHIYNREE [B1 21-36, reference compound] |  |  |  |  |  |  |  |  |  |  | 0.037 µM
6 | SEGFIHEFGHAVDDYAGYLL |  | >2 733 | 849 | DR15 | 131 | 46 | 0.04 | >1 000 | 5 | immunodominant epitopes in HLA-DR15 transgenics | 
7 | AVDDYAGYLLDKNQSDLVTN |  | >2 733 | 55 | DR4, DR15 | 1,789 | 10 | 0.1 | 42 | 1,380 | HLA-DR4 and HLA-DR15 restricted | 
8 | VLVIQSSEDYVENTEKALNV |  | >172 | 168 | DR1 | 66 | 29 | 958 | 82 | 1702 |  | 
9 | YLVDGNGRFVFTDITLPNIA |  | >2 733 | 45 | DR4 | 19 | 0.3 | 2 | 0.3 | 123 | elicited a T cell response in a single HLA transgenic strain | 
10 | LLFTNQLKEHPTDFSVEFLE |  | >172 | 148 | DQ8 | 51 | 6 | 193 | >76 | 909 |  | 
11 | EIMKHIVKIEVKGEEAVKKE |  | 19 | 4 | DQ8 | 249 | 567 | 329 | 50 | 243 |  | 
12 | YVYAKEGYEPVLVIQSSEDY |  | 3 | 14 | DR1, DQ8 | 1182 | 555 | >262 | >238 | 771 |  | 
13 | KLITFNVHNRYASNIVESAY |  | 0.5 | 7 | DR1, DR4 | 72 | 3 | 5 | 0.4 | 35 |  | 
14 | DTGGLIDSPSINLDVRKQYK |  | 8 | 179 | DR15 | 15 | 935 | 130 | 0.3 | 866 |  | 
15 | RNKTQEEHLKEIMKHIVKIE |  | 8 | 2 | DQ8 | 77 | >1 539 | >2 184 | >76 | 4810 |  | 
16 | YGKDALLHEHYVYAKEGYEP |  | 6 | 9 | DQ8 | 441 | 168 | 4000 | >76 | 199 |  | 
17 | SKKFIDIFKEEGSNLTSYGR |  | 1,225 | 0.4 | DR4 | 302 | 0.2 | 1 | 474 | 4 | HLA-DR4 and HLA-DR15 restricted | 
18 | PEAFNYMDKFNEQEINLSLE |  | >172 | 2 | DQ8 | 42 | 2 | 463 | >76 | 2156 |  | 
19 | KELLNRIQVDSSNPLSEKEK |  | 1,714 | 274 | DQ8 | 36 | 0 | 1 | 1 | 146 |  | 
20 | IGLEIKDVQIIKQSEKEYIRIDAKVVP |  | 24 | 73 | DR1, DR15 | 7 | 919 | 1 | 2 | 1 |  | 

From US20170058005A1 (priority 2014, published 2017)
